Residue numbers refer to the chain shown, from its start. Primed or numbered codes have the meaning given here. The star is where a group is joined. AOMK(5) = C-terminal Arg as acyloxymethyl ketone (dimethyl benzoic acid leaving group), Cc1cccc(C)c1C(=O)OCC(=O)[C@H](CCCNC(=N)N)N*; AOMK(4) = acyloxymethyl ketone (C-terminal covalent warhead); BODIPY(FL) = CC1=CC(C)=[N+]2C1=Cc1ccc(CCC(=O)*)n1[B-]2(F)F; FITC = O=C1OC2(c3ccc(O)cc3Oc3cc(O)ccc32)c2ccc(NC(=S)*)cc21; Butanoyl(4-ethynyl) = C#CCCCC(=O)*
Columns and labels:
Human cathepsin B [1] = target: T1, Human cathepsin B (human, UniProt P07858 80-333); test: reduction of the labeled cathepsin B band and in vitro cathepsin B cleavage assay
Description: 0.2 ng cathepsin B together with probe 5, z-VRPR-FMK, mepazine or CA-074 was incubated with 1 mM zRR-AMC substrate for 2 h at 30° C. Assay was performed in 0.1 M sodium acetate pH 5.5, 10 mM DTT and 0.1 mM EDTA. Again, increase of AMC fluorescence is measured in a Synergy 2 Microplate Reader (Biotek).
Importantly, MALT1 was the only inducible band in extracts labeled with probe 5, although some background signals were obtained. […] As expected, Caspase 8 activity was not affected by the diagnostic inhibitors of MALT1 of the present invention. […] In agreement with cross-reaction of the diagnostic MALT1 inhibitors of the present invention and cathepsin B, preincubation of CA-074Me in Jurkat T cells completely abolished detection of the ˜30 kDa signal while inducible MALT1 labeling was unaffected (FIG. 3D). Thus, tetrapeptides that target the active site of MALT1 are also binding to cathepsin B. Since serine (LRSR) or proline (VRPR) at the P2 position is already poorly tolerated by cysteine cathepsins, improvement of the peptide scaffold may be very difficult.

Human cathepsin B [2] = target: T1, Human cathepsin B; test: Jurkat whole cell extract labeled with probe 5 or probe 6, fluorescent scanning
Description: FIG. 6: Jurkat T cells were stimulated or not, lysed and whole cell extract was incubated with indicated concentrations of FITC conjugated probe 5 or BODIPY conjugated probe 6 and analyzed via fluorescent scanning. Probe 6 results in slightly higher active MALT1 labeling and cathepsin labeling (open circle) seems to be reduced.
Jurkat T cells (1-2×10⁷), primary human PBMCs or primary human T cells (0.25 or 1×10⁷) were lysed in 150 μl co-IP buffer without protease inhibitors. DLBCL (3×10⁷) were lysed in 250 μl buffer. After centrifugation (14000 rpm, 10 min, 4° C.), 100 μl extract (DLBCL: 200 μl) was stained with probe 5 or probe 6 (3 μM end) for 50 min at 29° C., mixed with 4× loading dye and boiled.

Human cathepsin B [3] = target: T1, Human cathepsin B; test: extracts of Jurkat T cells labeled with probe 5, in-gel fluorescence
[4] = target: T2, FLAG-MALT1 wt (MALT1 Isoform B, overexpressed in Jurkat T cells) (human, UniProt Q9UDY8 2-824); test: labeling after lysis and FLAG IP, in-gel fluorescence
T2 construct: also called overexpressed FLAG-MALT1 wt; not shown: N-terminal FLAG tag (or HA tag)
T2 sequence: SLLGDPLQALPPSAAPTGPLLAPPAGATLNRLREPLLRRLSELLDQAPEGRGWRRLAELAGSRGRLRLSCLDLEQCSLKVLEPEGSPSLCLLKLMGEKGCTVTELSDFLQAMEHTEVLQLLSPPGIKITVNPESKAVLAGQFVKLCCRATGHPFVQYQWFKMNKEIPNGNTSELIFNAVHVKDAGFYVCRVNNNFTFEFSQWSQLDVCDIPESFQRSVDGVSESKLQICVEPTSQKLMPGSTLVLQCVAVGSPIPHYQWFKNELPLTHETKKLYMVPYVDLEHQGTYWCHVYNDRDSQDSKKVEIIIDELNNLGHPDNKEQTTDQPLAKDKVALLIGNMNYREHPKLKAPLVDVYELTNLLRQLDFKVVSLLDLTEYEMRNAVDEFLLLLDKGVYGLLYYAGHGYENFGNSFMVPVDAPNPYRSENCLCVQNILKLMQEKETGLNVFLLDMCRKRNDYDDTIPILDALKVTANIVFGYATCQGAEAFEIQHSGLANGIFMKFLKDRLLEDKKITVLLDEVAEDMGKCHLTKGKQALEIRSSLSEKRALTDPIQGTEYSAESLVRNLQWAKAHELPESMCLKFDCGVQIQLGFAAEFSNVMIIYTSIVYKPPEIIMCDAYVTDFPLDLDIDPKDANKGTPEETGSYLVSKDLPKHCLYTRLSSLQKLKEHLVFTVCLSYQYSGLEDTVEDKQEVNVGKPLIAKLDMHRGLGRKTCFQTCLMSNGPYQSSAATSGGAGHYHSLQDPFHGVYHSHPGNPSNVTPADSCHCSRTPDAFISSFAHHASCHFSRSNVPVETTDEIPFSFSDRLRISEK
Description: (§1) Jurkat T cells, transfected with active FLAG-[…] wt or active site mutant C464A, were stained after lysis and IP with probe 2, pre-clicked to TAMRA. Analysis was done by fluorescence staining.
(§2) Cells were lysed in 500 μl co-IP buffer without protease inhibitors (25 mM hepes pH 7.5, 150 mM NaCl, 0.2% NP-40, 10% glycerol, 1 mM DTT, 10 mM sodium fluoride, 8 mM β-glycerophosphate and 300 μM sodium vanadate), centrifuged (14000 rpm, 10 min, 4° C.) and overexpressed FLAG MALT1 was immunoprecipitated by FLAG (M2) antibody for 3 hours at 4° C. PGS was added for 1 h at 4° C., precipitate was washed 2× with co-IP buffer and 1× with 50 mM hepes pH 7.4. Precipitated MALT1 was incubated with 0.3 μM pre-clicked probe 2 (in 20 μl 50 mM hepes pH 7.4) for 50 min at 29° C., mixed with 4× loading dye and boiled for 3 min. After protein separation by SDS PAGE, staining with diagnostic inhibitor was detected by Typhoon Fluorescence Scanner (FITC laser 488 nm/filter 526 SP; TAMRA laser 532 nm/filter 580 BP).

[5] = target: T3, FLAG-MALT1 active site mutant C464A (C453A in Isoform B) (human, UniProt Q9UDY8 2-824); test: labeling after FLAG IP, SDS PAGE, fluorescence scanning
T3 construct: Isoform B with C453A; also called MALT1 mutant; not shown: N-terminal FLAG tag (or HA tag)
T3 sequence: T2 sequence with C452A
Description: as §1, §2

B1: z-VRPR-FMK (peptide)
peptide: VRPR
modifications: not fully specified; N-terminal z group; C-terminal Arg as fluoromethylketone (FMK)
notes: Bought (Alexis Biochemicals)
B1: binds (Human cathepsin B [1]).

B2: probe 6 ((BODIPY-FL)-LRSR-AOMK) (peptide)
peptide: {BODIPY(FL)}-LRSR-{AOMK(5)}
SMILES: CC1=CC(C)=[N+]2C1=Cc1ccc(CCC(=O)N[C@@H](CC(C)C)C(=O)N[C@@H](CCCNC(=N)N)C(=O)N[C@@H](CO)C(=O)N[C@@H](CCCNC(=N)N)C(=O)N[C@@H](CCCNC(=N)N)C(=O)COC(=O)c3c(C)cccc3C)n1[B-]2(F)F
notes: Covalent activity-based probe; also called BODIPY conjugated probe 6; BODIPY probe 6
B2: binds (Human cathepsin B [2]).

B3: probe 5 (FITC-LRSR-AOMK) (peptide)
peptide: {FITC}-LRSR-{AOMK(4)}
notes: Covalent activity-based probe; also called FITC conjugated probe 5
B3: binds (Human cathepsin B [3]).

B4: probe 2 (alkyne-LRSR-AOMK), pre-clicked to TAMRA (peptide)
peptide: {N‑TAMRA‑3‑aminopropylazide (click)-Butanoyl(4-ethynyl)}-LRSR-{AOMK(5)}
notes: Covalent activity-based probe; also called TAMRA-LRSR-AOMK
B4: binds [4]; no binding (tested: 0.3 µM pre-clicked probe 2) [5].
